According to patent US20090291890A1 (published 2009):

T1: soluble tissue factor (sTF) (human)
T1 chain: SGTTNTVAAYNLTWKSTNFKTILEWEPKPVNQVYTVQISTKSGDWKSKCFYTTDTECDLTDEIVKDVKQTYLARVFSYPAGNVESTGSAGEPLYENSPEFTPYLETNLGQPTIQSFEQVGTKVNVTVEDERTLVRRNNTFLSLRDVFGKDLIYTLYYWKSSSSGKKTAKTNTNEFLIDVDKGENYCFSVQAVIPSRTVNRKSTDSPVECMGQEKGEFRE


Biological target: T1, soluble tissue factor (sTF)
Test: SPR (Biacore T100), sTF on CM5 chip, 1:1 fit; FVIIa from 293-F cells

Binder	Kd [nM]
FVIIa variant Q286T (enzyme) light: ANAFLEELRPGSLERECKEEQCSFEEAREIFKDAERTKLFWISYSDGDQCASSPCQNGGSCKDQLQSYICFCLPAFEGRNCETHKDDQLICVNENGGCEQYCSDHTGTKRSCRCHEGYSLLADGVSCTPTVEYPCGKIPILEKRNASKPQGR heavy: IVGGKVCPKGECPWQVLLLVNGAQLCGGTLINTIWVVSAAHCFDKIKNWRNLIAVLGEHDLSEHDGDEQSRRVAQVIIPSTYVPGTTNHDIALLRLHQPVVLTDHVVPLCLPERTFSERTLAFVRFSLVSGWGTLLDRGATALELMVLNVPRLMTQDCLQQSRKVGDSPNITEYMFCAGYSDGSKDSCKGDSGGPHATHYRGTWYLTGIVSWGQGCATVGHFGVYTRVSQYIEWLQKLMRSEPRPGVLLRAPFP	10.6
Q286R-FVIIa (enzyme) light: ANAFLEELRPGSLERECKEEQCSFEEAREIFKDAERTKLFWISYSDGDQCASSPCQNGGSCKDQLQSYICFCLPAFEGRNCETHKDDQLICVNENGGCEQYCSDHTGTKRSCRCHEGYSLLADGVSCTPTVEYPCGKIPILEKRNASKPQGR heavy: IVGGKVCPKGECPWQVLLLVNGAQLCGGTLINTIWVVSAAHCFDKIKNWRNLIAVLGEHDLSEHDGDEQSRRVAQVIIPSTYVPGTTNHDIALLRLHQPVVLTDHVVPLCLPERTFSERTLAFVRFSLVSGWGRLLDRGATALELMVLNVPRLMTQDCLQQSRKVGDSPNITEYMFCAGYSDGSKDSCKGDSGGPHATHYRGTWYLTGIVSWGQGCATVGHFGVYTRVSQYIEWLQKLMRSEPRPGVLLRAPFP	7.6
FVIIa variant Q286K (enzyme) light: ANAFLEELRPGSLERECKEEQCSFEEAREIFKDAERTKLFWISYSDGDQCASSPCQNGGSCKDQLQSYICFCLPAFEGRNCETHKDDQLICVNENGGCEQYCSDHTGTKRSCRCHEGYSLLADGVSCTPTVEYPCGKIPILEKRNASKPQGR heavy: IVGGKVCPKGECPWQVLLLVNGAQLCGGTLINTIWVVSAAHCFDKIKNWRNLIAVLGEHDLSEHDGDEQSRRVAQVIIPSTYVPGTTNHDIALLRLHQPVVLTDHVVPLCLPERTFSERTLAFVRFSLVSGWGKLLDRGATALELMVLNVPRLMTQDCLQQSRKVGDSPNITEYMFCAGYSDGSKDSCKGDSGGPHATHYRGTWYLTGIVSWGQGCATVGHFGVYTRVSQYIEWLQKLMRSEPRPGVLLRAPFP	8.2
FVIIa variant Q366E (enzyme) light: ANAFLEELRPGSLERECKEEQCSFEEAREIFKDAERTKLFWISYSDGDQCASSPCQNGGSCKDQLQSYICFCLPAFEGRNCETHKDDQLICVNENGGCEQYCSDHTGTKRSCRCHEGYSLLADGVSCTPTVEYPCGKIPILEKRNASKPQGR heavy: IVGGKVCPKGECPWQVLLLVNGAQLCGGTLINTIWVVSAAHCFDKIKNWRNLIAVLGEHDLSEHDGDEQSRRVAQVIIPSTYVPGTTNHDIALLRLHQPVVLTDHVVPLCLPERTFSERTLAFVRFSLVSGWGQLLDRGATALELMVLNVPRLMTQDCLQQSRKVGDSPNITEYMFCAGYSDGSKDSCKGDSGGPHATHYRGTWYLTGIVSWGEGCATVGHFGVYTRVSQYIEWLQKLMRSEPRPGVLLRAPFP	5.6
FVIIa variant Q286A (enzyme) light: ANAFLEELRPGSLERECKEEQCSFEEAREIFKDAERTKLFWISYSDGDQCASSPCQNGGSCKDQLQSYICFCLPAFEGRNCETHKDDQLICVNENGGCEQYCSDHTGTKRSCRCHEGYSLLADGVSCTPTVEYPCGKIPILEKRNASKPQGR heavy: IVGGKVCPKGECPWQVLLLVNGAQLCGGTLINTIWVVSAAHCFDKIKNWRNLIAVLGEHDLSEHDGDEQSRRVAQVIIPSTYVPGTTNHDIALLRLHQPVVLTDHVVPLCLPERTFSERTLAFVRFSLVSGWGALLDRGATALELMVLNVPRLMTQDCLQQSRKVGDSPNITEYMFCAGYSDGSKDSCKGDSGGPHATHYRGTWYLTGIVSWGQGCATVGHFGVYTRVSQYIEWLQKLMRSEPRPGVLLRAPFP	6.3
